The test deals with nucleosome N(13,91) (chicken). Kind of test: single-particle FRET.

As to “poly(ADP-ribose) polymerase 1 (from UniProt P09874 1-1014) (enzyme)”, the content of PARP1-nucleosome complexes at 50 nM PARP1 worked out at 45%.
